Measured values as given in publication PMC3753931.

B1: 21blunt (dsRNA)
RNA 1: AAGUCACAUUGCCCAAGUCUC
RNA 2: GAGACUUGGGCAAUGUGACUU

Assays:
[1] = target: T1, GST-Xl-dsRBD (XlrbpA dsRBD2) (Xenopus laevis) (UniProt Q91836); test: EMSA; details: scale: fold higher affinity than P1
T1 sequence: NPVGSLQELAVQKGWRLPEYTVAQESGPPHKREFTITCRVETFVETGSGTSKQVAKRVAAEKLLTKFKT

[2] = target: T2, GST-Xl-dsRBD (XlrbpA dsRBD2) (Xenopus laevis, UniProt Q91836 112-180); test: EMSA
T2 sequence: T1 sequence

Row | Molecule | binding signal [1] | binding result [2]
1 | 70-bp dsRNA | 30 | –
2 | 30-bp dsRNA | 30 | –
3 | 130-bp dsRNA | 30 | –
4 | 50-bp dsRNA | 30 | –
5 | B1 | – | binds
